Experimental findings from publication PMC9301641 are described below.

One experiment addresses SmBiT-Snof10. Briefly: split reporter.
For a further experiment, the target named is Snof3-LgBiT. The experiment can be described thus: split reporter.
Experiment [1] addresses Snof3, yeast surface-displayed. Briefly: flow cytometry on cells. For orientation: A flow cytometer gives signals particle by particle.
In experiment [2] the target is Snof10, yeast surface-displayed. Briefly: flow cytometry on cells.

B1: Sso6904 (natural protein)
chain: MMAMSILEDPEFVKLRQFKGKVNFNLVMQILDEIELDLRGSDNIKTSIIYVYSSHLDEIRKNKEFYDMIAEILQRYYKKIGIENVNQLILTTIK
As to B1, the Kd stood at 20 nM in the experiment with SmBiT-Snof10, 20 nM with Snof3-LgBiT, 11 nM in experiment [1] and 28 nM in experiment [2].

In general, Kd refers to a measure of binding affinity in units of concentration. The low end stands for tighter binding, the high end for weaker binding.
